Values quoted from earlier work in patent US12420014B2, “Dosing of incretin pathway drugs” (Closed Loop Medicine Ltd., priority 2023, dated 2025).

Key:
[1] = PK studies
[2] = subcutaneous administration, patient study data
[3] = for a given plasma level; FIG. 2B [2]
[4] = all adverse effects, nausea, vomiting; FIG. 13 [1]

semaglutide
dependence of plasma concentration on other co-medications [1]: do not show a significant dependence
higher clearance observed in patients with Type 2 diabetes [2]: 12%
HbA1c reduction at high starting HbA1c (>8.7%) relative to lower starting levels (<7.4%) [3]: 3 fold
plasma level below which side effects reduce [4]: less than 50 nmol/L
